Experimental data taken from US20220204580A1 (AstraZeneca / MedImmune, published 2022).
Numbered stars: 1 amine (or outer) side, 2 acyl side, 3 side chain; on linkers, the order of the positions; unused ones are H or OH. Bridge positions count the residues as written; N and C are the ends. Square brackets hold non-standard residues; d marks the D form. Side chains are listed from the residue outwards. Ends that are not written are not given here. * marks the point of attachment. C18 diacid = O=C(O)CCCCCCCCCCCCCCCCC(=O)*; γGlu = O=C(O)[C@H](CCC(=O)[*:2])N[*:1]; Dab = NCC[C@H](N)C(=O)O; Aib = CC(C)(N)C(=O)O

T1: human calcitonin receptor (human, UniProt P30988 25-474)
T1 sequence (looked up): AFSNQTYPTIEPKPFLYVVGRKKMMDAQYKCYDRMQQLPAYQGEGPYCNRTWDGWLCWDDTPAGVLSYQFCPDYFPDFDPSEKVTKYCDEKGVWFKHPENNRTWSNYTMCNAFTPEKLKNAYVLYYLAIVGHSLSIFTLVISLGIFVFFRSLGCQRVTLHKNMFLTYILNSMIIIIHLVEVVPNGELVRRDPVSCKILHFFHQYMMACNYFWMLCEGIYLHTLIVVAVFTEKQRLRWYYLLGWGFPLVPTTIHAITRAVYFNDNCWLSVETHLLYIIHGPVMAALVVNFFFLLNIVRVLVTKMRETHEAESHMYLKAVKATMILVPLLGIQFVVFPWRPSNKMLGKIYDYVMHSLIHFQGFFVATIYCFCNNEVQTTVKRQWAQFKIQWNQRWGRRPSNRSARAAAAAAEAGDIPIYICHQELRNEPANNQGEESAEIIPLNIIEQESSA

T2: human amylin receptor (calcitonin receptor co-expressed with receptor activity modifying protein, RAMP3) (human, UniProt P30988 25-474; O60896 24-148)
T2 sequence (looked up) 1: T1 sequence (looked up)
T2 sequence (looked up) 2: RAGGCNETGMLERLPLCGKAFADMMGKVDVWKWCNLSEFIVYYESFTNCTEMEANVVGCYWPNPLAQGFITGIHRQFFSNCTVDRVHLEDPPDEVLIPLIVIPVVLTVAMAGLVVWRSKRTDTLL

T3: rat calcitonin receptor (rat, UniProt P32214 25-516)
T3 sequence (looked up): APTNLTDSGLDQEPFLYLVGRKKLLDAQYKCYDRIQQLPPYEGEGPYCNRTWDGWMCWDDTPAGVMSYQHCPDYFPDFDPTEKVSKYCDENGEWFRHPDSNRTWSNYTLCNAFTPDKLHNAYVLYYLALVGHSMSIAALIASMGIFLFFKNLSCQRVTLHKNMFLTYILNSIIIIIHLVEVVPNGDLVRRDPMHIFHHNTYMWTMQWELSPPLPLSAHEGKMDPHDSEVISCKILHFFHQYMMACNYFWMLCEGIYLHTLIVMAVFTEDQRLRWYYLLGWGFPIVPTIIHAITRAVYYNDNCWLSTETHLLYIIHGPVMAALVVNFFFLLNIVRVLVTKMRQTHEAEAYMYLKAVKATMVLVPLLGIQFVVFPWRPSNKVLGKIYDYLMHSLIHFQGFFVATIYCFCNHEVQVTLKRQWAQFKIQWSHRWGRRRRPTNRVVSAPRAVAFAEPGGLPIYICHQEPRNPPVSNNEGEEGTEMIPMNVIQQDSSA

T4: rat amylin receptor (calcitonin receptor co-expressed with receptor activity modifying protein, RAMP3) (rat, UniProt P32214 25-516; Q9JJ73 23-147)
T4 sequence (looked up) 1: T3 sequence (looked up)
T4 sequence (looked up) 2: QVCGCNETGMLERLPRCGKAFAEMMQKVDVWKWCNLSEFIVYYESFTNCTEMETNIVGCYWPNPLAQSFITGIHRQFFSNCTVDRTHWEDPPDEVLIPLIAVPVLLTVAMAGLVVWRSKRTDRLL

B1: Peptide 33 (SEQ ID NO: 33) (peptide)
peptide: K([γGlu-C18 diacid])KCNTATCATQRLA[Dab]FLVHSSNNFGPILPPTNVGSNTY-NH2
modifications: disulfide 3-8; N-terminus assumed
SMILES: CC[C@H](C)[C@H](NC(=O)[C@@H]1CCCN1C(=O)CNC(=O)[C@H](Cc1ccccc1)NC(=O)[C@H](CC(N)=O)NC(=O)[C@H](CC(N)=O)NC(=O)[C@H](CO)NC(=O)[C@H](CO)NC(=O)[C@H](Cc1c[nH]cn1)NC(=O)[C@@H](NC(=O)[C@H](CC(C)C)NC(=O)[C@H](Cc1ccccc1)NC(=O)[C@H](CCN)NC(=O)[C@H](C)NC(=O)[C@H](CC(C)C)NC(=O)[C@H](CCCNC(=N)N)NC(=O)[C@H](CCC(N)=O)NC(=O)[C@@H](NC(=O)[C@H](C)NC(=O)[C@@H]1CSSC[C@H](NC(=O)[C@H](CCCCN)NC(=O)[C@@H](N)CCCCNC(=O)CC[C@H](NC(=O)CCCCCCCCCCCCCCCCC(=O)O)C(=O)O)C(=O)N[C@@H](CC(N)=O)C(=O)N[C@@H]([C@@H](C)O)C(=O)N[C@@H](C)C(=O)N[C@@H]([C@@H](C)O)C(=O)N1)[C@@H](C)O)C(C)C)C(=O)N[C@@H](CC(C)C)C(=O)N1CCC[C@H]1C(=O)N1CCC[C@H]1C(=O)N[C@H](C(=O)N[C@@H](CC(N)=O)C(=O)N[C@H](C(=O)NCC(=O)N[C@@H](CO)C(=O)N[C@@H](CC(N)=O)C(=O)N[C@H](C(=O)N[C@@H](Cc1ccc(O)cc1)C(N)=O)[C@@H](C)O)C(C)C)[C@@H](C)O
B2: Peptide 40 (SEQ ID NO: 40) (peptide)
peptide: K([γGlu-C18 diacid])KCNTATCATQRLANFLVHSS[Aib]NFGPILPPTHVGSNTY-NH2
modifications: disulfide 3-8; N-terminus assumed
SMILES: CC[C@H](C)[C@H](NC(=O)[C@@H]1CCCN1C(=O)CNC(=O)[C@H](Cc1ccccc1)NC(=O)[C@H](CC(N)=O)NC(=O)C(C)(C)NC(=O)[C@H](CO)NC(=O)[C@H](CO)NC(=O)[C@H](Cc1c[nH]cn1)NC(=O)[C@@H](NC(=O)[C@H](CC(C)C)NC(=O)[C@H](Cc1ccccc1)NC(=O)[C@H](CC(N)=O)NC(=O)[C@H](C)NC(=O)[C@H](CC(C)C)NC(=O)[C@H](CCCNC(=N)N)NC(=O)[C@H](CCC(N)=O)NC(=O)[C@@H](NC(=O)[C@H](C)NC(=O)[C@@H]1CSSC[C@H](NC(=O)[C@H](CCCCN)NC(=O)[C@@H](N)CCCCNC(=O)CC[C@H](NC(=O)CCCCCCCCCCCCCCCCC(=O)O)C(=O)O)C(=O)N[C@@H](CC(N)=O)C(=O)N[C@@H]([C@@H](C)O)C(=O)N[C@@H](C)C(=O)N[C@@H]([C@@H](C)O)C(=O)N1)[C@@H](C)O)C(C)C)C(=O)N[C@@H](CC(C)C)C(=O)N1CCC[C@H]1C(=O)N1CCC[C@H]1C(=O)N[C@H](C(=O)N[C@@H](Cc1c[nH]cn1)C(=O)N[C@H](C(=O)NCC(=O)N[C@@H](CO)C(=O)N[C@@H](CC(N)=O)C(=O)N[C@H](C(=O)N[C@@H](Cc1ccc(O)cc1)C(N)=O)[C@@H](C)O)C(C)C)[C@@H](C)O
B3: Peptide 38 (SEQ ID NO: 38) (peptide)
peptide: K([γGlu-C18 diacid])KCNTATCATQRLAEFLVHSS[Aib]NFGPILPPTNVGSNTY-NH2
modifications: disulfide 3-8; N-terminus assumed
SMILES: CC[C@H](C)[C@H](NC(=O)[C@@H]1CCCN1C(=O)CNC(=O)[C@H](Cc1ccccc1)NC(=O)[C@H](CC(N)=O)NC(=O)C(C)(C)NC(=O)[C@H](CO)NC(=O)[C@H](CO)NC(=O)[C@H](Cc1c[nH]cn1)NC(=O)[C@@H](NC(=O)[C@H](CC(C)C)NC(=O)[C@H](Cc1ccccc1)NC(=O)[C@H](CCC(=O)O)NC(=O)[C@H](C)NC(=O)[C@H](CC(C)C)NC(=O)[C@H](CCCNC(=N)N)NC(=O)[C@H](CCC(N)=O)NC(=O)[C@@H](NC(=O)[C@H](C)NC(=O)[C@@H]1CSSC[C@H](NC(=O)[C@H](CCCCN)NC(=O)[C@@H](N)CCCCNC(=O)CC[C@H](NC(=O)CCCCCCCCCCCCCCCCC(=O)O)C(=O)O)C(=O)N[C@@H](CC(N)=O)C(=O)N[C@@H]([C@@H](C)O)C(=O)N[C@@H](C)C(=O)N[C@@H]([C@@H](C)O)C(=O)N1)[C@@H](C)O)C(C)C)C(=O)N[C@@H](CC(C)C)C(=O)N1CCC[C@H]1C(=O)N1CCC[C@H]1C(=O)N[C@H](C(=O)N[C@@H](CC(N)=O)C(=O)N[C@H](C(=O)NCC(=O)N[C@@H](CO)C(=O)N[C@@H](CC(N)=O)C(=O)N[C@H](C(=O)N[C@@H](Cc1ccc(O)cc1)C(N)=O)[C@@H](C)O)C(C)C)[C@@H](C)O
B4: Peptide 35 (SEQ ID NO: 35) (peptide)
peptide: K([γGlu-C18 diacid])KCNTATCATQRLANFLVHSS[Aib]NFGPILPPTNVGSNTY-NH2
modifications: disulfide 3-8; N-terminus assumed
SMILES: CC[C@H](C)[C@H](NC(=O)[C@@H]1CCCN1C(=O)CNC(=O)[C@H](Cc1ccccc1)NC(=O)[C@H](CC(N)=O)NC(=O)C(C)(C)NC(=O)[C@H](CO)NC(=O)[C@H](CO)NC(=O)[C@H](Cc1c[nH]cn1)NC(=O)[C@@H](NC(=O)[C@H](CC(C)C)NC(=O)[C@H](Cc1ccccc1)NC(=O)[C@H](CC(N)=O)NC(=O)[C@H](C)NC(=O)[C@H](CC(C)C)NC(=O)[C@H](CCCNC(=N)N)NC(=O)[C@H](CCC(N)=O)NC(=O)[C@@H](NC(=O)[C@H](C)NC(=O)[C@@H]1CSSC[C@H](NC(=O)[C@H](CCCCN)NC(=O)[C@@H](N)CCCCNC(=O)CC[C@H](NC(=O)CCCCCCCCCCCCCCCCC(=O)O)C(=O)O)C(=O)N[C@@H](CC(N)=O)C(=O)N[C@@H]([C@@H](C)O)C(=O)N[C@@H](C)C(=O)N[C@@H]([C@@H](C)O)C(=O)N1)[C@@H](C)O)C(C)C)C(=O)N[C@@H](CC(C)C)C(=O)N1CCC[C@H]1C(=O)N1CCC[C@H]1C(=O)N[C@H](C(=O)N[C@@H](CC(N)=O)C(=O)N[C@H](C(=O)NCC(=O)N[C@@H](CO)C(=O)N[C@@H](CC(N)=O)C(=O)N[C@H](C(=O)N[C@@H](Cc1ccc(O)cc1)C(N)=O)[C@@H](C)O)C(C)C)[C@@H](C)O
B5: Peptide 34 (SEQ ID NO: 34) (peptide)
peptide: K([γGlu-C18 diacid])KCNTATCATQRLA[Dab]FLVHSSNNFGPILPPTEVGSNTY-NH2
modifications: disulfide 3-8; N-terminus assumed
SMILES: CC[C@H](C)[C@H](NC(=O)[C@@H]1CCCN1C(=O)CNC(=O)[C@H](Cc1ccccc1)NC(=O)[C@H](CC(N)=O)NC(=O)[C@H](CC(N)=O)NC(=O)[C@H](CO)NC(=O)[C@H](CO)NC(=O)[C@H](Cc1c[nH]cn1)NC(=O)[C@@H](NC(=O)[C@H](CC(C)C)NC(=O)[C@H](Cc1ccccc1)NC(=O)[C@H](CCN)NC(=O)[C@H](C)NC(=O)[C@H](CC(C)C)NC(=O)[C@H](CCCNC(=N)N)NC(=O)[C@H](CCC(N)=O)NC(=O)[C@@H](NC(=O)[C@H](C)NC(=O)[C@@H]1CSSC[C@H](NC(=O)[C@H](CCCCN)NC(=O)[C@@H](N)CCCCNC(=O)CC[C@H](NC(=O)CCCCCCCCCCCCCCCCC(=O)O)C(=O)O)C(=O)N[C@@H](CC(N)=O)C(=O)N[C@@H]([C@@H](C)O)C(=O)N[C@@H](C)C(=O)N[C@@H]([C@@H](C)O)C(=O)N1)[C@@H](C)O)C(C)C)C(=O)N[C@@H](CC(C)C)C(=O)N1CCC[C@H]1C(=O)N1CCC[C@H]1C(=O)N[C@H](C(=O)N[C@@H](CCC(=O)O)C(=O)N[C@H](C(=O)NCC(=O)N[C@@H](CO)C(=O)N[C@@H](CC(N)=O)C(=O)N[C@H](C(=O)N[C@@H](Cc1ccc(O)cc1)C(N)=O)[C@@H](C)O)C(C)C)[C@@H](C)O

Target: T1, human calcitonin receptor
Test: cell-based or functional assay

Binder	EC50 (cAMP production)
B1	15.8 nM
B2	3.33 nM
B3	1.05 nM
B4	14.2 nM
B5	17.7 nM

Target: T2, human amylin receptor (calcitonin …)
Test: cell-based or functional assay

Binder	EC50 (cAMP production)	Ratio (EC50 hCTR / EC50 hAMYR3)
B1	0.598 nM	26
B2	0.228 nM	15
B3	0.19 nM	6
B4	0.259 nM	55
B5	0.877 nM	20

Target: T3, rat calcitonin receptor
Test: cell-based or functional assay

Binder	EC50 (cAMP production)
B2	0.782 nM
B3	0.0203 nM
B4	0.514 nM

Target: T4, rat amylin receptor (calcitonin …)
Test: cell-based or functional assay

Binder	EC50 (cAMP production)
B2	0.012 nM
B3	0.0051 nM
B4	0.0059 nM
